According to paper PMC2649695 (Circulation research, 2009):

Target: T1, GST-MBS 683-866 (UniProt O14974 683-866)
T1 sequence (looked up): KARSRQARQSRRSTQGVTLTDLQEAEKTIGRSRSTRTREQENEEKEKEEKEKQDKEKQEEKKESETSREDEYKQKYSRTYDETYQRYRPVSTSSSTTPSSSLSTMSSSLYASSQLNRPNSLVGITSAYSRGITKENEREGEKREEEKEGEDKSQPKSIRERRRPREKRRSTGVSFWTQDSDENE
Assay: pull-down

- fold bound relative to mycROCK1: 2 fold
B1: Myc-tagged ROCK2 (natural protein, UniProt O75116 1-1388, looked up)
chain: MSRPPPTGKMPGAPETAPGDGAGASRQRKLEALIRDPRSPINVESLLDGLNSLVLDLDFPALRKNKNIDNFLNRYEKIVKKIRGLQMKAEDYDVVKVIGRGAFGEVQLVRHKASQKVYAMKLLSKFEMIKRSDSAFFWEERDIMAFANSPWVVQLFYAFQDDRYLYMVMEYMPGGDLVNLMSNYDVPEKWAKFYTAEVVLALDAIHSMGLIHRDVKPDNMLLDKHGHLKLADFGTCMKMDETGMVHCDTAVGTPDYISPEVLKSQGGDGFYGRECDWWSVGVFLYEMLVGDTPFYADSLVGTYSKIMDHKNSLCFPEDAEISKHAKNLICAFLTDREVRLGRNGVEEIRQHPFFKNDQWHWDNIRETAAPVVPELSSDIDSSNFDDIEDDKGDVETFPIPKAFVGNQLPFIGFTYYRENLLLSDSPSCRETDSIQSRKNEESQEIQKKLYTLEEHLSNEMQAKEELEQKCKSVNTRLEKTAKELEEEITLRKSVESALRQLEREKALLQHKNAEYQRKADHEADKKRNLENDVNSLKDQLEDLKKRNQNSQISTEKVNQLQRQLDETNALLRTESDTAARLRKTQAESSKQIQQLESNNRDLQDKNCLLETAKLKLEKEFINLQSALESERRDRTHGSEIINDLQGRICGLEEDLKNGKILLAKVELEKRQLQERFTDLEKEKSNMEIDMTYQLKVIQQSLEQEEAEHKATKARLADKNKIYESIEEAKSEAMKEMEKKLLEERTLKQKVENLLLEAEKRCSLLDCDLKQSQQKINELLKQKDVLNEDVRNLTLKIEQETQKRCLTQNDLKMQTQQVNTLKMSEKQLKQENNHLMEMKMNLEKQNAELRKERQDADGQMKELQDQLEAEQYFSTLYKTQVRELKEECEEKTKLGKELQQKKQELQDERDSLAAQLEITLTKADSEQLARSIAEEQYSDLEKEKIMKELEIKEMMARHKQELTEKDATIASLEETNRTLTSDVANLANEKEELNNKLKDVQEQLSRLKDEEISAAAIKAQFEKQLLTERTLKTQAVNKLAEIMNRKEPVKRGNDTDVRRKEKENRKLHMELKSEREKLTQQMIKYQKELNEMQAQIAEESQIRIELQMTLDSKDSDIEQLRSQLQALHIGLDSSSIGSGPGDAEADDGFPESRLEGWLSLPVRNNTKKFGWVKKYVIVSSKKILFYDSEQDKEQSNPYMVLDIDKLFHVRPVTQTDVYRADAKEIPRIFQILYANEGESKKEQEFPVEPVGEKSNYICHKGHEFIPTLYHFPTNCEACMKPLWHMFKPPPALECRRCHIKCHKDHMDKKEEIIAPCKVYYDISTAKNLLLLANSTEEQQKWVSRLVKKIPKKPPAPDPFARSSPRTSMKIQQNQSIRRPSRQLAPNKPS
